target: c-Src SH2; assay: SH2 binding enrichment of the phosphorylated peptide, bacterial display (enrichment ratio); higher = better substrate or ligand; peptides without Tyr show the background
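Note: peptide library displayed on the E. coli surface as eCPX fusions, selected cells deep-sequenced, score is each peptide's frequency after selection divided by its frequency in the input.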

Sequence | SH2 binding enrichment
FGSRLYKFAFK [FANCD2_Y458_L456R_YF] | 0.568
SLAARYFNWVS [FLT4_Y1230_YF] | 1.15
VAVVQYSGMGQ [COL6A1_Y878_T881M] | 0.603
LIDTVYSSSSA [OR4C12_Y71] | 0.551
MTEEQYIKMNR [ARFGEF2_Y797_K794E] | 0.376
GLPINYTTRRI [LAMA2_Y2894] | 0.325
KMTGRYEMFAR [UPB1_Y362_YF] | 1.75
NFNPNYCFAGK [ALK_Y1096_D1091N_YF] | 0.681
DLDLTYIFPNI [PTEN_Y27_YF] | 0.329
LSPNMYNSKLW [TARSL2_Y457] | 0.51
HNELYYEEAEH [VANGL1_Y345] | 0.798
LLTALYFISRG [KCNH2_Y780] | 2.43
QCTSAHPLQPE [NANS_Y188_Y188H] | 0.594
CPYNLYAEQLS [HGD_Y40] | 0.705
RHYVYYYSYLL [PTEN_Y177_R173H] | 0.536
LARDMYDKEYY [MET_Y1230] | 1.37
VTNHIYTWVDP [DFNB31_Y234] | 1.05
CTTIHNNFMCN [TP53_Y234_Y234N_YF] | 1.07
VGTKRYMAPKV [ACVRL1_Y375_E379K] | 0.632
PGLKGYPGLSG [COL4A2_Y306_R304K] | 0.431
NVSILYTASQA [CTNNA1_Y222_P219S] | 0.499

Continued, values first:

SH2 binding enrichment | Sequence
0.573 | QVQQIYSDSDL [MIB1_Y376_R371Q]
0.791 | VHFLVYHHHHH [CACNA1H_Y519_H516Y_YF]
0.606 | DVLVEYQGEGR [GNS_Y416]
0.437 | TSESSYFKSLN [NGEF_Y288_A286S_YF]
0.897 | GGQSVYHVHLH [HINT1_Y109]
2.23 | KALSLYTKLMN [STAM_Y371_E366K]
0.581 | TIQSMYGCDVG [HLA-B_Y123_L119I]
0.392 | PEADKYRLTYA [FGG_Y300]
0.471 | KQELVYPNKKL [OPTN_Y356_T357P]
0.3 | HLQQSYLPRGT [TEX45_Y396]
0.374 | EPAVLYNLKDR [MYH7_Y103]
0.412 | KGEDFYYVTCH [FHL1_Y149_C150Y]

target: SHP2-C SH2; assay: as above

Sequence | SH2 binding enrichment
FGSRLYKFAFK [FANCD2_Y458_L456R_YF] | 0.583
SLAARYFNWVS [FLT4_Y1230_YF] | 1.39
VAVVQYSGMGQ [COL6A1_Y878_T881M] | 0.927
LIDTVYSSSSA [OR4C12_Y71] | 0.734
MTEEQYIKMNR [ARFGEF2_Y797_K794E] | 0.435
GLPINYTTRRI [LAMA2_Y2894] | 0.58
KMTGRYEMFAR [UPB1_Y362_YF] | 1.07
NFNPNYCFAGK [ALK_Y1096_D1091N_YF] | 0.881
DLDLTYIFPNI [PTEN_Y27_YF] | 0.547
LSPNMYNSKLW [TARSL2_Y457] | 0.763
HNELYYEEAEH [VANGL1_Y345] | 0.95
LLTALYFISRG [KCNH2_Y780] | 1.99
QCTSAHPLQPE [NANS_Y188_Y188H] | 0.465
CPYNLYAEQLS [HGD_Y40] | 0.737
RHYVYYYSYLL [PTEN_Y177_R173H] | 0.906
LARDMYDKEYY [MET_Y1230] | 0.614
VTNHIYTWVDP [DFNB31_Y234] | 0.956
CTTIHNNFMCN [TP53_Y234_Y234N_YF] | 1.32
VGTKRYMAPKV [ACVRL1_Y375_E379K] | 1.44
PGLKGYPGLSG [COL4A2_Y306_R304K] | 0.504
NVSILYTASQA [CTNNA1_Y222_P219S] | 0.685

Results, then the sequence that gave them:

SH2 binding enrichment | Sequence
0.836 | QVQQIYSDSDL [MIB1_Y376_R371Q]
0.755 | VHFLVYHHHHH [CACNA1H_Y519_H516Y_YF]
0.818 | DVLVEYQGEGR [GNS_Y416]
0.553 | TSESSYFKSLN [NGEF_Y288_A286S_YF]
0.904 | GGQSVYHVHLH [HINT1_Y109]
3.1 | KALSLYTKLMN [STAM_Y371_E366K]
1.01 | TIQSMYGCDVG [HLA-B_Y123_L119I]
0.736 | PEADKYRLTYA [FGG_Y300]
0.505 | KQELVYPNKKL [OPTN_Y356_T357P]
0.458 | HLQQSYLPRGT [TEX45_Y396]
0.867 | EPAVLYNLKDR [MYH7_Y103]
0.565 | KGEDFYYVTCH [FHL1_Y149_C150Y]

Source: the supplement of paper PMC10065799, “High-throughput profiling of sequence recognition by tyrosine kinases and SH2 domains using bacterial peptide display” (eLife, 2023)
